This note sets out measurements from patent US20230079439A1, “Compositions and Methods for Enhancing Beta Cell Maturation, Health and Function” (THE REGENTS OF THE UNIVERSITY OF CALIFORNIA, priority 2016, published 2023).

In one assay the test system is human islet cells. Description: GSIS of dissociated human islet cells after clustered rNL2ED-Fc. In kind it is cell-based. The settings on record: added 4 hours prior to GSIS. As to the method: FIG. 24 depicts insulin secretion by human islet cells after incubation with cross-linked, clustered rNL2ED-Fc. Indicated volume of solution containing cross-linked rNL2ED-Fc (90 μg/ml) or vehicle alone was added to equal numbers of dissociated human islet cells 4 hours prior to determination of GSIS. Stimulated insulin secretion is shown. […] (n=6 wells, representative of 3 separate experiments).
A recombinant protein with the extracellular domain of neuroligin-2 fused to an IgG Fc domain (rNL2ED-Fc) has been made. In contrast to the peptidomimetic agents, which are modeled on the neurexin binding site, this protein should be able to interact with all extracellular neuroligin-2 binding partners. Chemically cross-linked clusters incorporating this protein are made. Clustered complexes that sufficiently mimic endogenous clustered neuroligin-2 promote β-cell maturation and function to a greater degree than the peptidomimetic-based reagents. […] In contrast, rNL2ED monomers had no effect (not shown).

The next assay deals with rat islets. Description: Insulin secretion by rat islets with soluble neuroligin-2. In kind it is cell-based. The following applies: 20 mM glucose, read-out: half-maximal inhibition of insulin secretion. The protocol:
Soluble neuroligin-2 extracellular domain was added to cultures of rat islets at the indicated concentrations. Insulin secretion was then measured (20 mM glucose). […] The soluble protein competes with endogenous, clustered neuroligin for binding to transcellular partners.

B1: rNL2ED monomers: non-clustered recombinant neuroligin-2 extracellular domain (protein, UniProt Q62888 15-678, looked up)
extracellular domain: QRGGGGPGGGAPGGPGLGLGSLGEERFPVVNTAYGRVRGVRRELNNEILGPVVQFLGVPYATPPLGARRFQPPEAPASWPGVRNATTLPPACPQNLHGALPAIMLPVWFTDNLEAAATYVQNQSEDCLYLNLYVPTEDGPLTKKRDEATLNPPDTDIRDSGKKPVMLFLHGGSYMEGTGNMFDGSVLAAYGNVIVATLNYRLGVLGFLSTGDQAAKGNYGLLDQIQALRWLSENIAHFGGDPERITIFGSGAGASCVNLLILSHHSEGLFQKAIAQSGTAISSWSVNYQPLKYTRLLAAKVGCDREDSTEAVECLRRKSSRELVDQDVQPARYHIAFGPVVDGDVVPDDPEILMQQGEFLNYDMLIGVNQGEGLKFVEDSAESEDGVSASAFDFTVSNFVDNLYGYPEGKDVLRETIKFMYTDWADRDNGEMRRKTLLALFTDHQWVAPAVATAKLHADYQSPVYFYTFYHHCQAEGRPEWADAAHGDELPYVFGVPMVGATDLFPCNFSKNDVMLSAVVMTYWTNFAKTGDPNQPVPQDTKFIHTKPNRFEEVVWSKFNSKEKQYLHIGLKPRVRDNYRANKVAFWLELVPHLHNLHTELFTTTTRLPPYATRWPPRTPGPGTSGTRRPPPPATLPPESDIDLGPRAYDRFPGDSRDYSTELS
modifications: extracellular domain
notes: non-clustered recombinant neuroligin-2 extracellular domain
Consider B1, for which, in the assay on human islet cells, the “stimulated insulin secretion by human β-cells” value was “had no effect”.

B2: Soluble neuroligin-2 extracellular domain: soluble protein that competes with endogenous, clustered neuroligin for binding to transcellular partners (protein, UniProt Q8NFZ4 15-677, looked up)
extracellular domain: QRGGGGPGGGAPGGPGLGLGSLGEERFPVVNTAYGRVRGVRRELNNEILGPVVQFLGVPYATPPLGARRFQPPEAPASWPGVRNATTLPPACPQNLHGALPAIMLPVWFTDNLEAAATYVQNQSEDCLYLNLYVPTEDGPLTKKRDEATLNPPDTDIRDPGKKPVMLFLHGGSYMEGTGNMFDGSVLAAYGNVIVATLNYRLGVLGFLSTGDQAAKGNYGLLDQIQALRWLSENIAHFGGDPERITIFGSGAGASCVNLLILSHHSEGLFQKAIAQSGTAISSWSVNYQPLKYTRLLAAKVGCDREDSAEAVECLRRKPSRELVDQDVQPARYHIAFGPVVDGDVVPDDPEILMQQGEFLNYDMLIGVNQGEGLKFVEDSAESEDGVSASAFDFTVSNFVDNLYGYPEGKDVLRETIKFMYTDWADRDNGEMRRKTLLALFTDHQWVAPAVATAKLHADYQSPVYFYTFYHHCQAEGRPEWADAAHGDELPYVFGVPMVGATDLFPCNFSKNDVMLSAVVMTYWTNFAKTGDPNQPVPQDTKFIHTKPNRFEEVVWSKFNSKEKQYLHIGLKPRVRDNYRANKVAFWLELVPHLHNLHTELFTTTTRLPPYATRWPPRPPAGAPGTRRPPPPATLPPEPEPEPGPRAYDRFPGDSRDYSTELS
modifications: extracellular domain
With B2, the IC50 with rat islets came to 9 nM.
